Results on 16 molecules are retold here after patent publication US5635597A (Affymax Technologies, N.V., priority 1994, dated 1997).

Where a SMILES comes first, the peptide text is derived from it.

Assay [1] addresses T1, β-subunit (Homo sapiens, UniProt P14784).
T1 construct: was produced in recombinant host cells in a truncated form; made in house; host or cells: recombinant host cells (baculovirus system or PIG-tailed CHO cells named as options)
T1 sequence (P14784 27-240 limits assumed): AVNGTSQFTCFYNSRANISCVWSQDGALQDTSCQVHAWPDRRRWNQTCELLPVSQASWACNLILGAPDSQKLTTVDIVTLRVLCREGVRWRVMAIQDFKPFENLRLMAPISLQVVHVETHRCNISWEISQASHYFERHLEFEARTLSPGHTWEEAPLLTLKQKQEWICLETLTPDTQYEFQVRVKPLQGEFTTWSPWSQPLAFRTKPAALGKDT
The assay is described as follows: Blocking of IL-2 binding to the β-subunit.

Assay [2] addresses T2, αβ (Homo sapiens, UniProt P01589+P14784).
T2 construct: was produced in recombinant host cells in a truncated form; made in house; host or cells: recombinant host cells (baculovirus system or PIG-tailed CHO cells named as options)
T2 sequence (P01589 22-240 limits assumed): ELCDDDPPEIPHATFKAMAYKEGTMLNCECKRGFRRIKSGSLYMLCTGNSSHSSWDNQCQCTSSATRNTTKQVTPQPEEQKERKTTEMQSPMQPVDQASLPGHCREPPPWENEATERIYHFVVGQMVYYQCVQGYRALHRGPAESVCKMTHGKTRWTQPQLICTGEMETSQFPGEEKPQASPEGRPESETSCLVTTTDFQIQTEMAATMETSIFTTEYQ
T2 sequence (P14784 27-240 limits assumed): T1 sequence (P14784 27-240 limits assumed)
Briefly: Binding to αβ subunits. How it is done: (§1) After several rounds of affinity enrichment, the phage or plasmids and accompanying peptides were examined by ELISA to determine if the peptides bind specifically to the receptor. This assay was carried out in a manner similar to the procedures used in the affinity enrichment process, except that after removing unbound phage (or plasmids), the wells were typically treated with rabbit anti-phage antibody, then with alkaline phosphatase (AP)-conjugated goat anti-rabbit antibody, or with anti-LacI-AP, and then the amount of alkaline phosphatase in each well was determined by standard methods. By comparing test wells with control wells containing an unrelated receptor, one can determine whether a peptide binds to IL-2Rα (or IL-2Rβ, γ, αβ, or βγ) specifically. Peptides found to bind specifically to the receptor were then synthesized as the free peptide (no phage) and tested for binding against (1) immobilized soluble receptor, (2) receptor expressed on the surface of cells, (3) the heterotrimer form of the receptor (i.e., IL-2Rαβγ) expressed on the surface of cells and (4) the two heterodimers IL-2Rαβ and IL-2Rβγ.

Assay [3] has as its target T3, βγ (Homo sapiens, UniProt P14784+P31785).
T3 construct: was produced in recombinant host cells in a truncated form; made in house; host or cells: recombinant host cells (not fixed)
T3 sequence (P14784 27-240 limits assumed): T1 sequence (P14784 27-240 limits assumed)
T3 sequence (P31785 23-262 limits assumed): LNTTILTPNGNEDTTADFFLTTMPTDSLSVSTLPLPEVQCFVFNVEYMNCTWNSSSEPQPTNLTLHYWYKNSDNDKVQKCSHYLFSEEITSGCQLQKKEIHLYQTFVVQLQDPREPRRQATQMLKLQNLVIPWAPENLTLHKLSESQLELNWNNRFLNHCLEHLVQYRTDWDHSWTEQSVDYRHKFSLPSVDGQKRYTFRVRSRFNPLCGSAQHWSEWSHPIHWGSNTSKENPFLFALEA
Briefly: Binding to βγ subunits. How it is done:
as §1

Assay [4] concerns the target T3, βγ. Briefly: Competition against phage-borne […], βγ heterodimer. It counts as binding. The following applies: free peptide.
Assay [5] addresses T2, αβ. Briefly: Competition against phage-borne […], αβ heterodimer. It counts as binding. The following applies: free peptide.
Assay [6] deals with T4, immobilized IL-2Rβ (Homo sapiens, UniProt P14784).
T4 construct: was produced in recombinant host cells in a truncated form; made in house; host or cells: recombinant host cells (baculovirus system or PIG-tailed CHO cells named as options)
T4 sequence (P14784 27-240 limits assumed): T1 sequence (P14784 27-240 limits assumed)
The assay is described as follows: pVIII 12-mer phage screen against immobilized IL-2Rβ. The conditions noted are these: pVIII-bound 12-mers. It counts as binding.
Text: (§2) In the systems employed, the random peptides were presented either on the surface of a phage particle, as part of a fusion protein comprising either the pIII or the pVIII coat protein of a phage fd derivative (peptides on phage), or as a fusion protein with LacI bound to a plasmid (peptides on plasmids). The phage or plasmids, including the DNA encoding the peptides, were identified and isolated by an affinity enrichment process using immobilized IL-2Rα, IL-2Rβ, IL-2Rγ and the αβ heterodimer. The affinity enrichment process, sometimes called "panning", involves multiple rounds of incubating the phage or plasmids with immobilized receptor, collecting the phage or plasmids that bind to the receptor (along with the accompanying DNA), and producing more of the phage or plasmids (along with accompanying LacI-peptide fusion protein) collected.
as §1

Assay [7] deals with T5, IL-2Rαβ heterodimer (Homo sapiens, UniProt P01589+P14784).
T5 construct: was produced in recombinant host cells in a truncated form; made in house; host or cells: recombinant host cells (baculovirus system or PIG-tailed CHO cells named as options)
T5 sequence (P01589 22-240 limits assumed): T2 sequence (P01589 22-240 limits assumed)
T5 sequence (P14784 27-240 limits assumed): T1 sequence (P14784 27-240 limits assumed)
Briefly: pVIII 10-mer phage screen / ELISA against IL-2Rαβ heterodimer. It counts as binding. The following applies: pVIII-bound 10-mers on phage.
Text: as §2, §1
The immobilized receptor used in the affinity enrichment and ELISA procedures was produced in recombinant host cells in a truncated form. This truncated receptor molecule can be produced in a variety of different forms and host cells. One useful form of receptor is constructed by expressing the protein as a soluble protein in baculovirus transformed host cells using standard methods; another useful form is constructed with a signal peptide for protein secretion and for glycophospholipid membrane anchor attachment. This form of anchor attachment is called "PIG-tailing;"see Caras and Weddell, 3 Mar. 1989, Science 243:1196-1198, and Lin et al., 10 Aug. 1990, Science 249:677-679, each of which is incorporated herein by reference. Using the PIG-tailing system, one can cleave the receptor from the surface of the cells expressing receptor (e.g., transformed Chinese hamster ovary (CHO) cells selected for high level expression of receptor with a cell sorter) with phospholipase C. The cleaved receptor still comprises a carboxy terminal sequence of amino acids, called the "HPAP tail", from the signal for membrane attachment and can be immobilized without further purification.
The recombinant receptor protein was immobilized by coating the wells of microtiter plates with an anti-HPAP tail antibody, blocking with bovine serum albumin (BSA) in PBS, and then binding recombinant, truncated receptor to the antibody. Using this procedure, one should perform the immobilization reaction in varying concentrations of the receptor to determine the optimum amount for a given preparation, because different preparations of recombinant protein often contain different amounts of the desired protein. […] Otherwise, unblocked antibody can bind undesired phage during the affinity enrichment procedure. […]
In general terms: An ELISA detects its analyte on a solid surface through an enzyme-linked reagent.

For assay [8], the target named is T6, βγ-subunit (Homo sapiens, UniProt P14784+P31785).
T6 construct: was produced in recombinant host cells in a truncated form; made in house; host or cells: recombinant host cells (not fixed)
T6 sequence (P14784 27-240 limits assumed): T1 sequence (P14784 27-240 limits assumed)
T6 sequence (P31785 23-262 limits assumed): T3 sequence (P31785 23-262 limits assumed)
The assay is described as follows: Phage-ELISA competition with phage bearing peptides, βγ-subunit. The following applies: phage-ELISA assay. Format: binding. The text has this:
(§3) After several rounds of affinity enrichment, the phage or plasmids and accompanying peptides were examined by ELISA to determine if the peptides bind specifically to the receptor. […] By comparing test wells with control wells containing an unrelated receptor, one can determine whether a peptide binds to IL-2Rα (or IL-2Rβ, γ, αβ, or βγ) specifically.
Random pVIII 10-mer and 11-mer libraries were also screened against immobilized IL-2Rγ monomer in a phage ELISA assay at high receptor density.

Assay [9] deals with T7, immobilized IL-2Rγ monomer (Homo sapiens, UniProt P31785).
T7 construct: was produced in recombinant host cells in a truncated form; made in house; host or cells: recombinant host cells (not fixed)
T7 sequence (P31785 23-262 limits assumed): T3 sequence (P31785 23-262 limits assumed)
The assay is described as follows: Phage ELISA against immobilized IL-2Rγ monomer. It counts as binding. The following applies: high receptor density. How it is done: as §1
(§4) Random pVIII 10-mer and 11-mer libraries were also screened against immobilized IL-2Rγ monomer in a phage ELISA assay at high receptor density. […] These peptides also bound to the βγ-subunit and competed with radiolabelled ligand.

In assay [10] the target is T6, βγ-subunit. Briefly: Binding to βγ-subunit and competition with radiolabelled ligand.
Text: as §4

Assay [11] concerns the target T8, IL-2Rα (Homo sapiens, UniProt P01589).
T8 construct: was produced in recombinant host cells in a truncated form; made in house; host or cells: recombinant host cells (baculovirus system or PIG-tailed CHO cells named as options)
T8 sequence (P01589 22-240 limits assumed): T2 sequence (P01589 22-240 limits assumed)
The assay is described as follows: Phage screen of αβ heterodimer in presence of β-specific peptides: specific binding to IL-2Rα. How it is done: as §1
The αβ heterodimer was screened in the presence of each of the following peptides, […] (SEQ ID NO:65), […] (SEQ ID NO:66), […] (SEQ ID NO:67), […] (SEQ ID NO:68) and […] (SEQ ID NO:69) under standard conditions. […]

In assay [12] the target is T9, immobilized IL-2Rα (Homo sapiens, UniProt P01589).
T9 construct: was produced in recombinant host cells in a truncated form; made in house; host or cells: recombinant host cells (baculovirus system or PIG-tailed CHO cells named as options)
T9 sequence (P01589 22-240 limits assumed): T2 sequence (P01589 22-240 limits assumed)
Briefly: Blocking of IL-2 binding to immobilized IL-2Rα.

Assay [13] has as its target T10, α subunit (Homo sapiens, UniProt P01589).
T10 construct: was produced in recombinant host cells in a truncated form; made in house; host or cells: recombinant host cells (baculovirus system or PIG-tailed CHO cells named as options)
T10 sequence (P01589 22-240 limits assumed): T2 sequence (P01589 22-240 limits assumed)
Briefly: Phage ELISA competition against phage-bearing […]. The conditions noted are these: phage ELISA format against phage-bearing FVRCTASGCV
It counts as binding.
Text: as §3

Assay [14] has as its target T11, IL-2Rβ (Homo sapiens, UniProt P14784).
T11 construct: tag (kind not specified; detected enzymatically or on X-ray film)
T11 sequence (P14784 27-240 limits assumed): T1 sequence (P14784 27-240 limits assumed)
The assay is described as follows: Colony lift procedure with tagged IL-2 receptors. It counts as binding. The text has this: Peptides specific for the IL-2Rα, β and γ subunits were also discovered using a "colony lift" procedure, wherein cells were infected with DNA encoding for random amino acid sequences as described above. The phage was then allowed to grow on arabinose media to induce expression of the encoded peptides. […] The filters were washed and dried, and the tagged colonies were detected enzymatically, or by exposure to X-ray film, to identify those receptors which bound to the immobilized peptide-expressing phage particles.
Sequences which bound to IL-2Rβ have the general sequence RDCSX81AX82 LGELC, wherein X81 is V, E or D; and X82 is V or A. Preferred sequences are […], […] (SEQ ID NO: ), and […] (SEQ ID NO: ).

As for `CSCC[C@H](N)C(=O)N[C@@H](CC(=O)O)C(=O)N[C@@H](CS)C(=O)N[C@@H](CO)C(=O)N[C@@H](CCC(=O)O)C(=O)N[C@@H](C)C(=O)N[C@H](C(=O)N[C@@H](CC(C)C)C(=O)NCC(=O)N[C@@H](CCC(=O)O)C(=O)N[C@@H](CC(C)C)C(=O)N[C@@H](CS)C(=O)O)C(C)C` (H-MDCSEAVLGELC-OH; N-terminus and C-terminus assumed), the “blocking IL-2 binding to the β-subunit” value in assay [1] was “capable of blocking IL-2 binding”. Besides, in assay [2], the “binding to αβ subunits” value is reported as “able to bind”. In addition, in [3], the “binding to βγ subunits” value is reported as “able to bind”. Also, the “competition against phage-born MDCSEAVLGELC for binding” value in assay [4] and in [5] was “competitive” each time. Moreover, the “subunit specificity of clones” value in assay [6] is given as “β-specific”.
Regarding ARSDYGLGAIWP, the “subunit specificity of clones” value in [6] is listed as “β-specific”.
Consider ARYGDVGSLV, for which, in assay [7], the “binding to the αβ heterodimer” value is listed as “bound” and the subunit specificity entry is given as “specific for the β subunit”.
In the case of CGTQEACFGLL, in assay [8], the “competition with phage bearing peptides in binding to the βγ-subunit” value is recorded as “compete”. Moreover, in assay [9], the “specific binding to IL-2Rγ” value is listed as “bind to that subunit specifically”. Also, in assay [10], the “binding to the βγ-subunit” value is “bound”. For the same molecule, in assay [10] (βγ-subunit), the “competition with radiolabelled ligand” value is on record as “competed”.
For the molecule EVICGTDGCW, the “specific binding to IL-2Rα” value in [11] is listed as “bound specifically”. The “concentration at which IL-2 binding to immobilized IL-2Rα was blocked” value in [12] amounted to 330 µM.
For FVRCTASGCV, the “competition for binding with respect to the α subunit” value in assay [13] is listed as “compete for binding”.
In the case of HCLDMGCTFPVW, in assay [6], the “subunit specificity of clones” value is given as “β-specific”.
The same measure, in the same setting: the result for RACRVMPCLPDL reads “β-specific”.
For RDCSDAVLEGLC, the “binding to IL-2Rβ” value in assay [14] is reported as “bound”.
Still for that read-out and setting: the result for RDCSEARLGELC reads “bound”; that for RDCSVAVLGELC, “bound”.
With RWGDVGDMVV, in assay [7], the “binding to the αβ heterodimer” value is reported as “bound” and the subunit specificity entry is listed as “specific for the β subunit”.
Turning to RYGEVGDLLP, in assay [7], the “binding to the αβ heterodimer” value was “bound” and the subunit specificity entry is listed as “specific for the β subunit”.
For SGCGRELDWC the same measures were “bound” and “specific for the β subunit”.
For the molecule SVRCSASGCV, in assay [11], the “specific binding to IL-2Rα” value is “bound specifically”. Also, in [12], the “concentration at which IL-2 binding to immobilized IL-2Rα was blocked” value was found to be 110 µM.
As for WDGPGLGEFF, in assay [7], the “binding to the αβ heterodimer” value is “bound” and the subunit specificity result is reported as “specific for the β subunit”.
